Laboratory results: paper PMC9430930

system: NupR (NagR2) (Bacillus thuringiensis BMB171), ORF:032de0b7; assay: EMSA; conditions: NupR: 10 mM Tris-HCl pH 7.5, 50 mM NaCl, 0.5 mM DTT, 4% glycerol, 200 ng poly(dI-dC), 25 C 30 min, ComK/CcpA/PurR: 10 mM Tris-HCl pH 8.0, 50 mM KCl

Sequence	binding
TGCATACTTACTCACCATCCCATTAGAACAATCTAATTTTTTGAGTTGTCATACCACTACAATAATGTGAATTCGACAATTTTTGATATGAAATAATGCATAATATATATAAAATTCGGCAAATTTTTCATACAATTCATCTCACATACAATAATAGATTAGGAGTGTTATAGATGAATTATAG (double strand) [baci promoter]	binds
CGCATTTCAATTATTCGACCTCTGATGTAAGACTTCTTTTCTCTTTTTTCAACTTACAACATAGTACAAATGACTAAACACCAAAATAAGTGTAATTGTCGAATAAATAATAATAATTTTTTAAAATAAAATTTTCACTCTTTATTGCATAAAAAAAACTTTGCACCATAAACATTCCTCATTTCGAGAAAAAGTTCGGCACAAAGATCCTTTACATCCTTTGTTACACACTTTTCCCCTCATAGTCTAGCAATTCATGGTTGCC (double strand) [nagR2 (nupR) promoter]	binds
CTAATACAACACGGTTAATACCTTTTTTCATTTCAAAATTCCTCGCAATTTCATTGATTTTATTATGTAAGATAATACGTCTTACTTCTATAGAGTCATATCTAGTTTATTACATTTTATAAAAGATATTCAAGTATTTGAAAATGTATCCGTGCAAATCCGCGAACAAAACATAGGAATTCAGTGAACCGAATATAATTCAGTAAAATCCTTTGTAAAAGGGGAAATGGCATGG (double strand) [ldh promoter]	binds
GGTGAAATAGTATGGTCATCACGTAATAAAGTATCATCTAAATCTAAAACAATCATTTTATAAGTCATATAGAAAATTCCTTTCTTTAATTGAAATCAAAATACATGTTCATGAAGATGTTGAGGAATAATAGTAAGACATCAAACCTCTTTGAAAAGAAGTAGATAAATTATTATGAGTTGTTGCTCATAATATTGGTTAATAATCATTGGGGAAGAATAAAACCCCAATGATTAAAGTTTGATTTTATCGTAACAACTCTAAAGGTAGAGTGCAATAATGGAAGTT (double strand) [had promoter]	binds
